Test system: COc1cc2c(c(OC)c1OC)-c1ccc(OC)c(=O)cc1[C@@H](NC(C)=O)CC2
Assay: TP_TRANSPORTER: ATP hydrolysis in reconstituted proteoliposomes
Type: functional, subcellular

ATP-dependent translocase ABCB1 (Homo sapiens)
Km: 45 µM
